In paper PMC6688830, “A Ubiquitin-Binding Domain that Binds a Structural Fold Distinct from that of Ubiquitin” (Structure(London, England:1993), 2019):

What was measured:
Conditions in all cases: both partners purified
KAP1 S33-K434 = biological target: T1, KAP1 S33-K434 (human, UniProt Q13263 33-434); assay: ITC; MicroCal ITC200, 20°C; KAP1 RBCC (9-18 μM) in the cell, SMARCAD1 CUE1 or CUE1,2 (90-300 μM) in the syringe; 10 mM Tris-HCl pH 7.9, 100 mM NaCl, 5 mM β-ME; One set of sites model
T1 construct: KAP1 (TRIM28), human, UniProt Q13263, residues S33-K434 (RBCC domain); The crystal structures of shorter RBCC constructs show an antiparallel homodimer; also called KAP1 RBCC (S33-K434); KAP1 RBCC; source: E. coli BL-21 CodonPlus (DE3)-RP, purified (Ni-NTA, Ulp1, Mono Q)
T1 sequence (Q13263 33-434): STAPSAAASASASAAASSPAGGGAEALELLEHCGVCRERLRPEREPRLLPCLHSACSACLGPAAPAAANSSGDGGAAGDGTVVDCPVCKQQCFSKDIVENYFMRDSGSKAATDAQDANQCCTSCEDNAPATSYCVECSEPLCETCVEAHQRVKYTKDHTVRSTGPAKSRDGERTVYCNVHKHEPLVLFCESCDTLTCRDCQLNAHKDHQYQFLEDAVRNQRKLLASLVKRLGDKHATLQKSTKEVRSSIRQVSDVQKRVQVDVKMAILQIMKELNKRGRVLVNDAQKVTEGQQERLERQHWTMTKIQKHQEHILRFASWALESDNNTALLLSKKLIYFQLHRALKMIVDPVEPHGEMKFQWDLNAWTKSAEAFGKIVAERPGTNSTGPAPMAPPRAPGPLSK

Ubiquitin = biological target: T2, Ubiquitin (UniProt P0CG48 1-76); assay: ITC; MicroCal ITC200, 10°C; 120 μM SMARCAD1 CUE1 or CUE1,2 in the cell, 9.8 mM mono-Ub in the syringe; 10 mM Tris-HCl pH 7.9, 100 mM NaCl, 5 mM β-ME; One set of sites model
T2 construct: ubiquitin, monomeric, the cut product of a ubiquitin precursor; also called mono-Ub; monomeric ubiquitin; source: bought: Boston Biochem (purified recombinant)

KAP1 S33-K434 L376A = biological target: T3, KAP1 S33-K434 L376A (human, UniProt Q13263 33-434, L376A); assay: co-IP; purified SMARCAD1 fragments (FLAG-CUE1,2, FLAG-CUE1) and KAP1 RBCC, 9.6μg each in 240μL, 4°C 1 hour; anti-FLAG M2 affinity gel 3 hours
T3 construct: KAP1 (TRIM28), human, UniProt Q13263, residues S33-K434 (RBCC domain); source: E. coli BL-21 CodonPlus (DE3)-RP, purified (Ni-NTA, Ulp1, Mono Q)
T3 sequence (Q13263 33-434 L376A): as the sequence (Q13263 33-434) above, with L344A counted along it

KAP1 S33-K434 I379A = biological target: T4, KAP1 S33-K434 I379A (human, UniProt Q13263 33-434, I379A); assay: as above
T4 construct: KAP1 (TRIM28), human, UniProt Q13263, residues S33-K434 (RBCC domain); source: E. coli BL-21 CodonPlus (DE3)-RP, purified (Ni-NTA, Ulp1, Mono Q)
T4 sequence (Q13263 33-434 I379A): as the sequence (Q13263 33-434) above, with I347A counted along it

KAP1 S33-K434 V380A = biological target: T5, KAP1 S33-K434 V380A (human, UniProt Q13263 33-434, V380A); assay: as above
T5 construct: KAP1 (TRIM28), human, UniProt Q13263, residues S33-K434 (RBCC domain); source: E. coli BL-21 CodonPlus (DE3)-RP, purified (Ni-NTA, Ulp1, Mono Q)
T5 sequence (Q13263 33-434 V380A): as the sequence (Q13263 33-434) above, with V348A counted along it

B1: FLAG-CUE1,2 (WT) (domain or fragment, human, UniProt Q9H4L7 95-347, looked up)
chain: SSDSEDVVSPNCSNTVQEKTFNKDTVIIVSEPSEDEESQGLPTMARRNDDISELEDLSELEDLKDAKLQTLKELFPQRSDNDLLKLIESTSTMDGAIAAALLMFGDAGGGPRKRKLSSSSEPYEEDEFNDDQSIKKTRLDHGEESNESAESSSNWEKQESIVLKLQKEFPNFDKQELREVLKEHEWMYTEALESLKVFAEDQDMQYVSQSEVPNGKEVSSRSQNYPKNATKTKLKQKFSMKAQNGFNKKRKKN
notes: SMARCAD1, human, UniProt Q9H4L7, residues S95-N347 (both CUE domains); also called SMARCAD1 CUE1,2 (S95-N347); wild-type CUE1,2; source: E. coli BL-21 CodonPlus (DE3)-RIL, purified (Ni-NTA, Ulp1, Mono Q if required)
B1 was tested, and the Kd (KAP1 S33-K434) was roughly 0.21 µM, the Kd (Ubiquitin) was roughly 389 µM and the binding result (KAP1 S33-K434 L376A) was “binds”. B1: binds (KAP1 S33-K434 I379A); binds (KAP1 S33-K434 V380A).
